Patent US7192720

Tests used:
[1] = target: soluble rhTNFR-1 extracellular domain protein (human) (UniProt P19438); assay: Western blot of soluble hTNFR probed with AF225 pre-mixed with 1:10 BAF225-3 : wild type T7 phage; plaque lift of recovered phage with AF225
[2] = target: soluble rhTNFR-1 extracellular domain protein (human) (UniProt P19438); assay: Western blot of soluble hTNFR probed with AF225 pre-mixed with 1:10 BAF225-3 : wild type T7 phage; phage eluted from excised bands and titered

UniProt P19438, sequence (P19438 30-211 limits assumed): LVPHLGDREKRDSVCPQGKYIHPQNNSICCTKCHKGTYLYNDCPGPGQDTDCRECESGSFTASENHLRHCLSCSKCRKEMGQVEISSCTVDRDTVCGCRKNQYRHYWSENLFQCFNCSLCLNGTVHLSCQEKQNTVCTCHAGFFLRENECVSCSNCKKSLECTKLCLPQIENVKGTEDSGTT

- enrichment of target phage relative to negative phage [1]: 190 fold
- percent of phage recovered from the TNFR band that were target phage [1]: 95%
- fold more phage recovered from the TNFR band than from the negative control [2]: 100 fold
Substance: goat anti-hTNFR polyclonal antibody (AF225)
